The text below walks through data of patent US20130097734A1.

Assay in all cases: cell-based or functional assay
Assay [1] has as its target T1, AVR3a homolog from Phytophthora palmivora designated as L3B (Phytophthora palmivora).
T1 sequence: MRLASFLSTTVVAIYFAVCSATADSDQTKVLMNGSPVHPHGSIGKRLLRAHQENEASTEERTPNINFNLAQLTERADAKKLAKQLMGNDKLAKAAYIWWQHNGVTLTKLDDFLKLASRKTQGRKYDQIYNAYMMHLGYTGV

The target of assay [2] is T2, AVR3a homolog from Phytophthora palmivora designated as L6B (Phytophthora palmivora).
T2 sequence: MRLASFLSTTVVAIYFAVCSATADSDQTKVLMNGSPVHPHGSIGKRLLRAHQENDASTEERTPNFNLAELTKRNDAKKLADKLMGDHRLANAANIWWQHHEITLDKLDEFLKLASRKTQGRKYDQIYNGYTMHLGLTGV

Assay [3] has as its target T3, AVR3a homolog from Phytophthora palmivora designated as L7B (Phytophthora palmivora).
T3 sequence: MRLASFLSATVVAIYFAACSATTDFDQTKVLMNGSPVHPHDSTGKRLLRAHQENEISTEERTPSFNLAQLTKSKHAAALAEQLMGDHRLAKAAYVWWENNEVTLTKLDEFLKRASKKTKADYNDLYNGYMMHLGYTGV

For assay [4], the target named is AVR3a^KI effector protein of Phytophthora infestans (Phytophthora infestans) (UniProt Q572D3).

B1: wild-type R3a protein (protein)
chain: MEIGLAVGGAFLSSALNVLFDRLAPHGDLLNMFQKHKDHVKLLKKLEDILLGLQIVLSDAENKQASNRHVSQWFNKLQNAVDGAENLIEQVNYEALRLKVEGQHQNLAETSNQQVSDLNLCFSDDFFLNIKDKLEETIETLEVLEKQIGRLGLKEHFGSTKQETRTPSTSLVDDSDIFGRQNDIEDLIDRLLSEDASGKKRTVVPIVGMGGLGKTTLAKAVYNDERVQIHFGLKAWFCVSEAFDAFRITKGLLQEIGSFDLKADDNLNQLQVKLKERLKGKKFLIVLDDVWNDNYNKWDELRNVFVQGDIGSKIIVTTRKESVALMMGNEQISMDNLSTESSWSLFKTHAFENMGPMGHPELEEVGKQIAAKCKGLPLALKTLAGMLRSKSEVEEWKRILRSEIWELPHNDILPALMLSYNDLPAHLKRCFSFCAIFPKDYPFRKEQVIHLWIANGLVPQEDVIIEDSGNQYFLELRSRSLFERVPNPSQGNTENLFLMHDLVNDLAQIASSKLCIRLEESQGSHMLEQSQHLSYSMGYGGEFEKLTPLYKLEQLRTLLPTCIDLPDCCHHLSKRVLHNILPRLTSLRALSLSCYEIVELPNDLFIKLKLLRFLDISRTEIKRLPDSICALYNLETLLLSSCYDLEELPLQMEKLINLRHLDISNTRLLKMPLHLSKLKSLQVLVGAKFLIGGLRMEDLGEVHNLYGSLSVVELQNVVDRREAVKAKMREKNHVDRLYLEWSGSSSADNSQTERDILDELRPHKNIKVVKITGYRGTNFPNWLADPLFLKLVKLSLRNCKNCYSLPALGQLPFLKFLSIREMHGITEVTEEFYGSWSSKKPFNCLEKLEFKDMPEWKQWDLLGSGEFPILEKLLIENCPELSLETVPIQLSSLKSFDVIGSPLVINFPLSILPTTLKRIKISDCQKLKLEQPTGEISMFLEELTLIKCDCIDDISPELLPRARKLWVQDWHNLTRFLIPTATETLDIWNCENVEILSVACGGTQMTSLTIAYCKKLKWLPERMQELLPSLKELHLSNCPEIESFPEGGLPFNLQQLAIRYCKKLVNGRKEWHLQRRLCLTALIIYHDGSDEEIVGGENWELPSSIQRLTIVNLKTLSSQHLKNLTSLQYLFIRGNLPQIQPMLEQGQCSHLTSLQSLQISSLQSLPESALPSSLSHLEISHCPNLQSLPESALPSSLSQLTINNCPNLQSLSESTLPSSLSQLEISFCPNLQYLPLKGMPSSLSELSIYKCPLLKPQLEFDKGEYWPNIAQFPTIKIDRECM
On to B1, for which, in assay [1], the Cell death/HR intensity, pBIN::35S-R3a, 1dpi stood at 0; the Cell death/HR intensity, pBIN::35S-R3a, 2dpi was found to be 1; the Cell death/HR intensity, pBIN::35S-R3a, 3dpi is 2; the Cell death/HR intensity, pVnt1-R3a, 1dpi was found to be 0. Moreover, in assay [1], the Cell death/HR intensity, pVnt1-R3a, 2dpi came to 0 and the Cell death/HR intensity, pVnt1-R3a, 3dpi is 0. In assay [2], the Cell death/HR intensity, pBIN::35S-R3a, 1dpi amounted to 0; the Cell death/HR intensity, pBIN::35S-R3a, 2dpi turned out to be 0; the Cell death/HR intensity, pBIN::35S-R3a, 3dpi was 0; the Cell death/HR intensity, pVnt1-R3a, 1dpi turned out to be 0. For the same molecule, in assay [2], the Cell death/HR intensity, pVnt1-R3a, 2dpi is 0 and the Cell death/HR intensity, pVnt1-R3a, 3dpi is 0. In assay [3], this molecule gave a Cell death/HR intensity, pBIN::35S-R3a, 1dpi of 0; a Cell death/HR intensity, pBIN::35S-R3a, 2dpi of 1; a Cell death/HR intensity, pBIN::35S-R3a, 3dpi of 1; a Cell death/HR intensity, pVnt1-R3a, 1dpi of 0. In assay [3], the Cell death/HR intensity, pVnt1-R3a, 2dpi is 1 and the Cell death/HR intensity, pVnt1-R3a, 3dpi stood at 1. In assay [4], this molecule came in with a Cell death/HR intensity, pBIN::35S-R3a, 1dpi of 1; a Cell death/HR intensity, pBIN::35S-R3a, 2dpi of 1; a Cell death/HR intensity, pBIN::35S-R3a, 3dpi of 2; a Cell death/HR intensity, pVnt1-R3a, 1dpi of 2. Moreover, in assay [4], the Cell death/HR intensity, pVnt1-R3a, 2dpi was determined as 3 and the Cell death/HR intensity, pVnt1-R3a, 3dpi was determined as 4.
